Values quoted from earlier work, collected in paper PMC7249735.

Test system: RGNNV coat protein (RGNNV-CP), MBP fusion (red-spotted grouper nervous necrosis virus (RGNNV))
Settings: PBS (137 mM NaCl, 2.7 mM KCl, 10 mM Na2HPO4, 1.8 mM KH2PO4, pH 7.4); ELASA 30 min at 4 C after 3% BSA block; sandwich capture in PBS, temperature not stated

## TGTGTGTCTATTGTCTGTGGTTCATGTCAAGCTTATTTTCCACACACGGT [A10]
  Kd: 4 nM
